Assay results published in patent US7657380.

Each binder was assayed against T1, human CD30 (commercial, conjugated to digoxigenin) (human, UniProt P28908 19-379, limits assumed, conjugated to digoxigenin (DIG)) (assay: AlphaScreen competition).
T1 sequence (looked up): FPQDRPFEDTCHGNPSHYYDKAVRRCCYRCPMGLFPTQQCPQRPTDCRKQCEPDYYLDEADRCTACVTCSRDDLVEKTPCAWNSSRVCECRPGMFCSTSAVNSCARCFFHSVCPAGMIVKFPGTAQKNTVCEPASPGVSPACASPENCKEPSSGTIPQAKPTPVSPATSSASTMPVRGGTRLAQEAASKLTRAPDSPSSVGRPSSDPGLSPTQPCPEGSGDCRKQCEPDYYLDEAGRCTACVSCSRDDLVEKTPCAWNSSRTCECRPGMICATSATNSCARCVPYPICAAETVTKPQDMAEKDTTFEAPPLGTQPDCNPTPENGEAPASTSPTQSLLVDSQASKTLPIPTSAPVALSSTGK

Binder | Fold IC50 vs H3/L3
AC10 H3/L3.1 (antibody, IgG1, name in Kabat numbering, V domains shown) VH: QIQLVQSGPEVKKPGASVKVSCKASGYTFTDYYITWVRQAPGQGLEWMGWIYPGSGNTKYNEKFQGRFVFSVDTSASTAYLQISSLKAEDTAVYFCANYGNYWFAYWGQGTLVTVSS VL: AIVLTQSPDSLAVSLGERATINCKASQSVDFDGDSYMNWYQQKPGQPPKVLIYAASNLESGIPARFSGSGSGTDFTLTINSLEAEDAATYYCQQSNEDPWTFGGGTKVEIK | 1.3 fold
AC10 H3/L3.6 (antibody, IgG1, name in Kabat numbering, V domains shown) VH: QIQLVQSGPEVKKPGASVKVSCKASGYTFTDYYITWVRQAPGQGLEWMGWIYPGSGNTKYNEKFQGRFVFSVDTSASTAYLQISSLKAEDTAVYFCANYGNYWFAYWGQGTLVTVSS VL: DIVMTQSPDSLAVSLGERATINCKASQSVDFDGDSYMNWYQQKPGQPPKVLIYAASNLESGIPARFSGSGSGTDFTLTINSLEAEDAATYYCQQSNEDPWTFGGGTKVEIK | 1.64 fold
AC10 H3/L3.3 (antibody, IgG1, name in Kabat numbering, V domains shown) VH: QIQLVQSGPEVKKPGASVKVSCKASGYTFTDYYITWVRQAPGQGLEWMGWIYPGSGNTKYNEKFQGRFVFSVDTSASTAYLQISSLKAEDTAVYFCANYGNYWFAYWGQGTLVTVSS VL: NIVLTQSPDSLAVSLGERATINCKASQSVDFDGDSYMNWYQQKPGQPPKVLIYAASNLESGIPARFSGSGSGTDFTLTINSLEAEDAATYYCQQSNEDPWTFGGGTKVEIK | 1.66 fold
AC10 H3/L3.2 (antibody, IgG1, name in Kabat numbering, V domains shown) VH: QIQLVQSGPEVKKPGASVKVSCKASGYTFTDYYITWVRQAPGQGLEWMGWIYPGSGNTKYNEKFQGRFVFSVDTSASTAYLQISSLKAEDTAVYFCANYGNYWFAYWGQGTLVTVSS VL: EIVLTQSPDSLAVSLGERATINCKASQSVDFDGDSYMNWYQQKPGQPPKVLIYAASNLESGIPARFSGSGSGTDFTLTINSLEAEDAATYYCQQSNEDPWTFGGGTKVEIK | 1.24 fold
AC10 H3/L3.4 (antibody, IgG1, name in Kabat numbering, V domains shown) VH: QIQLVQSGPEVKKPGASVKVSCKASGYTFTDYYITWVRQAPGQGLEWMGWIYPGSGNTKYNEKFQGRFVFSVDTSASTAYLQISSLKAEDTAVYFCANYGNYWFAYWGQGTLVTVSS VL: SIVLTQSPDSLAVSLGERATINCKASQSVDFDGDSYMNWYQQKPGQPPKVLIYAASNLESGIPARFSGSGSGTDFTLTINSLEAEDAATYYCQQSNEDPWTFGGGTKVEIK | 1.04 fold
AC10 H3/L3.8 (antibody, IgG1, name in Kabat numbering, V domains shown) VH: QIQLVQSGPEVKKPGASVKVSCKASGYTFTDYYITWVRQAPGQGLEWMGWIYPGSGNTKYNEKFQGRFVFSVDTSASTAYLQISSLKAEDTAVYFCANYGNYWFAYWGQGTLVTVSS VL: DIVLTQSPDSLAVSLGERATINCKASQDVDFDGDSYMNWYQQKPGQPPKVLIYAASNLESGIPARFSGSGSGTDFTLTINSLEAEDAATYYCQQSNEDPWTFGGGTKVEIK | 0.94 fold
AC10 H3/L3.5 (antibody, IgG1, name in Kabat numbering, V domains shown) VH: QIQLVQSGPEVKKPGASVKVSCKASGYTFTDYYITWVRQAPGQGLEWMGWIYPGSGNTKYNEKFQGRFVFSVDTSASTAYLQISSLKAEDTAVYFCANYGNYWFAYWGQGTLVTVSS VL: DIQLTQSPDSLAVSLGERATINCKASQSVDFDGDSYMNWYQQKPGQPPKVLIYAASNLESGIPARFSGSGSGTDFTLTINSLEAEDAATYYCQQSNEDPWTFGGGTKVEIK | 1.32 fold

Target: T1, human CD30 (commercial, conjugated to …)
Test: AlphaScreen competition
Remark: another data set of the same source

Binder | Fold IC50 vs H3/L3
AC10 H3.50/L3 (antibody, IgG1, name in Kabat numbering, V domains shown) VH: QIQLVQSGPEVKKPGASVKVSCKASGYTFTDYYITWVRQAPGQGLEWMGWIYPGSGNTKYNEKFQGRFVFSVDTSASTAYLQISSLKAEDTAVYFCVNYGNYWFAYWGQGTLVTVSS VL: DIVLTQSPDSLAVSLGERATINCKASQSVDFDGDSYMNWYQQKPGQPPKVLIYAASNLESGIPARFSGSGSGTDFTLTINSLEAEDAATYYCQQSNEDPWTFGGGTKVEIK | 1.4 fold
AC10 H3.62/L3 (antibody, IgG1, name in Kabat numbering, V domains shown) VH: QIQLVQSGPEVKKPGASVKVSCKASGYTFTDYYITWVRQAPGQGLEWMGWIYPGSGNTKYNEKFQGRFVFSVDTSASTAYLQISSLKAEDTAVYFCANYGNYWFALWGQGTLVTVSS VL: DIVLTQSPDSLAVSLGERATINCKASQSVDFDGDSYMNWYQQKPGQPPKVLIYAASNLESGIPARFSGSGSGTDFTLTINSLEAEDAATYYCQQSNEDPWTFGGGTKVEIK | 1.22 fold
AC10 H3.60/L3 (antibody, IgG1, name in Kabat numbering, V domains shown) VH: QIQLVQSGPEVKKPGASVKVSCKASGYTFTDYYITWVRQAPGQGLEWMGWIYPGSGNTKYNEKFQGRFVFSVDTSASTAYLQISSLKAEDTAVYFCANYGNYWFASWGQGTLVTVSS VL: DIVLTQSPDSLAVSLGERATINCKASQSVDFDGDSYMNWYQQKPGQPPKVLIYAASNLESGIPARFSGSGSGTDFTLTINSLEAEDAATYYCQQSNEDPWTFGGGTKVEIK | 0.82 fold
AC10 H3.53/L3 (antibody, IgG1, name in Kabat numbering, V domains shown) VH: QIQLVQSGPEVKKPGASVKVSCKASGYTFTDYYITWVRQAPGQGLEWMGWIYPGSGNTKYNEKFQGRFVFSVDTSASTAYLQISSLKAEDTAVYFCAKYGNYWFAYWGQGTLVTVSS VL: DIVLTQSPDSLAVSLGERATINCKASQSVDFDGDSYMNWYQQKPGQPPKVLIYAASNLESGIPARFSGSGSGTDFTLTINSLEAEDAATYYCQQSNEDPWTFGGGTKVEIK | 0.02 fold
AC10 H3.64/L3 (antibody, IgG1, name in Kabat numbering, V domains shown) VH: QIQLVQSGPEVKKPGASVKVSCKASGYTFTDYYITWVRQAPGQGLEWMGWIYPGSGNTKYNEKFQGRFVFSVDTSASTAYLQISSLKAEDTAVYFCANYGNYWFAYWGRGTLVTVSS VL: DIVLTQSPDSLAVSLGERATINCKASQSVDFDGDSYMNWYQQKPGQPPKVLIYAASNLESGIPARFSGSGSGTDFTLTINSLEAEDAATYYCQQSNEDPWTFGGGTKVEIK | 1.28 fold
AC10 H3.55/L3 (antibody, IgG1, name in Kabat numbering, V domains shown) VH: QIQLVQSGPEVKKPGASVKVSCKASGYTFTDYYITWVRQAPGQGLEWMGWIYPGSGNTKYNEKFQGRFVFSVDTSASTAYLQISSLKAEDTAVYFCATYGNYWFAYWGQGTLVTVSS VL: DIVLTQSPDSLAVSLGERATINCKASQSVDFDGDSYMNWYQQKPGQPPKVLIYAASNLESGIPARFSGSGSGTDFTLTINSLEAEDAATYYCQQSNEDPWTFGGGTKVEIK | 0.91 fold
AC10 H3.63/L3 (antibody, IgG1, name in Kabat numbering, V domains shown) VH: QIQLVQSGPEVKKPGASVKVSCKASGYTFTDYYITWVRQAPGQGLEWMGWIYPGSGNTKYNEKFQGRFVFSVDTSASTAYLQISSLKAEDTAVYFCANYGNYWFAFWGQGTLVTVSS VL: DIVLTQSPDSLAVSLGERATINCKASQSVDFDGDSYMNWYQQKPGQPPKVLIYAASNLESGIPARFSGSGSGTDFTLTINSLEAEDAATYYCQQSNEDPWTFGGGTKVEIK | 1.24 fold
AC10 H3.59/L3 (antibody, IgG1, name in Kabat numbering, V domains shown) VH: QIQLVQSGPEVKKPGASVKVSCKASGYTFTDYYITWVRQAPGQGLEWMGWIYPGSGNTKYNEKFQGRFVFSVDTSASTAYLQISSLKAEDTAVYFCANYGNYWFAHWGQGTLVTVSS VL: DIVLTQSPDSLAVSLGERATINCKASQSVDFDGDSYMNWYQQKPGQPPKVLIYAASNLESGIPARFSGSGSGTDFTLTINSLEAEDAATYYCQQSNEDPWTFGGGTKVEIK | 1.05 fold
AC10 H3.52/L3 (antibody, IgG1, name in Kabat numbering, V domains shown) VH: QIQLVQSGPEVKKPGASVKVSCKASGYTFTDYYITWVRQAPGQGLEWMGWIYPGSGNTKYNEKFQGRFVFSVDTSASTAYLQISSLKAEDTAVYFCAHYGNYWFAYWGQGTLVTVSS VL: DIVLTQSPDSLAVSLGERATINCKASQSVDFDGDSYMNWYQQKPGQPPKVLIYAASNLESGIPARFSGSGSGTDFTLTINSLEAEDAATYYCQQSNEDPWTFGGGTKVEIK | 1.24 fold
AC10 H3.61/L3 (antibody, IgG1, name in Kabat numbering, V domains shown) VH: QIQLVQSGPEVKKPGASVKVSCKASGYTFTDYYITWVRQAPGQGLEWMGWIYPGSGNTKYNEKFQGRFVFSVDTSASTAYLQISSLKAEDTAVYFCANYGNYWFAVWGQGTLVTVSS VL: DIVLTQSPDSLAVSLGERATINCKASQSVDFDGDSYMNWYQQKPGQPPKVLIYAASNLESGIPARFSGSGSGTDFTLTINSLEAEDAATYYCQQSNEDPWTFGGGTKVEIK | 1.21 fold
AC10 H3.54/L3 (antibody, IgG1, name in Kabat numbering, V domains shown) VH: QIQLVQSGPEVKKPGASVKVSCKASGYTFTDYYITWVRQAPGQGLEWMGWIYPGSGNTKYNEKFQGRFVFSVDTSASTAYLQISSLKAEDTAVYFCARYGNYWFAYWGQGTLVTVSS VL: DIVLTQSPDSLAVSLGERATINCKASQSVDFDGDSYMNWYQQKPGQPPKVLIYAASNLESGIPARFSGSGSGTDFTLTINSLEAEDAATYYCQQSNEDPWTFGGGTKVEIK | 0 fold
AC10 H3.58/L3 (antibody, IgG1, name in Kabat numbering, V domains shown) VH: QIQLVQSGPEVKKPGASVKVSCKASGYTFTDYYITWVRQAPGQGLEWMGWIYPGSGNTKYNEKFQGRFVFSVDTSASTAYLQISSLKAEDTAVYFCANYGNYWFQYWGQGTLVTVSS VL: DIVLTQSPDSLAVSLGERATINCKASQSVDFDGDSYMNWYQQKPGQPPKVLIYAASNLESGIPARFSGSGSGTDFTLTINSLEAEDAATYYCQQSNEDPWTFGGGTKVEIK | 0.16 fold
AC10 H3.57/L3 (antibody, IgG1, name in Kabat numbering, V domains shown) VH: QIQLVQSGPEVKKPGASVKVSCKASGYTFTDYYITWVRQAPGQGLEWMGWIYPGSGNTKYNEKFQGRFVFSVDTSASTAYLQISSLKAEDTAVYFCANYGNYWFDYWGQGTLVTVSS VL: DIVLTQSPDSLAVSLGERATINCKASQSVDFDGDSYMNWYQQKPGQPPKVLIYAASNLESGIPARFSGSGSGTDFTLTINSLEAEDAATYYCQQSNEDPWTFGGGTKVEIK | 0.53 fold
